# Data published in PMC2832577 (Science (New York, N.Y.), 2008).
# Key:
# [1] = biological target: T1, LeuT (Aquifex aeolicus, UniProt O67854); experiment: displacement of [3H]leucine binding
# [2] = biological target: T1, LeuT; experiment: direct radioligand binding
# [3] = biological target: T1, LeuT; experiment: X-ray crystal structure, anomalous difference Fourier; format: binding; conditions: primary substrate site
# [4] = test system: CC(C)C[C@H](N)C(=O)O; experiment: purified protein; conditions: transport
# [5] = test system: CSCC[C@H](N)C(=O)O; experiment: purified protein; conditions: transport
# [6] = test system: NCC(=O)O; experiment: purified protein; conditions: transport
# [7] = test system: N[C@@H](Cc1ccc(O)cc1)C(=O)O; experiment: purified protein; conditions: transport
molecule,measurement,setting,value
NCC(=O)O [Glycine],Ki,[1],322 µM
CSCC[C@H](N)C(=O)O [Methionine],Ki,[1],0.232 ± 0.021 µM
same,Kd,[2],69 ± 8 nM
N[C@@H](Cc1ccc(O)cc1)C(=O)O [Tyrosine],Ki,[1],9.04 ± 0.55 µM
C[Se]CC[C@H](N)C(=O)O [selenomethionine],"X-ray crystal structure, anomalous difference Fourier",[3],We also measured diffraction data on a LeuT-selenomethionine complex
LeuT (Aquifex aeolicus VF5),Km,[4],146 ± 25 nM
same,Vmax,[4],0.000343 µmol/min/mg
same,kcat,[4],0.000333 ± 5.56e-05 s⁻¹
same,kcat/Km,[4],2280 M⁻¹ s⁻¹
same,Km,[5],289 ± 27 nM
same,Vmax,[5],0.000523 µmol/min/mg
same,kcat,[5],0.000517 ± 1.11e-05 s⁻¹
same,kcat/Km,[5],1780 M⁻¹ s⁻¹
same,Km,[6],1910 ± 30 nM
same,Vmax,[6],0.000444 µmol/min/mg
same,kcat,[6],0.000439 ± 5.56e-05 s⁻¹
same,kcat/Km,[6],222 M⁻¹ s⁻¹
same,Km,[7],2830 ± 150 nM
same,Vmax,[7],0.000209 µmol/min/mg
same,kcat,[7],0.000206 ± 1.39e-05 s⁻¹
same,kcat/Km,[7],83.3 M⁻¹ s⁻¹
